Data: IntAct's records for PubMed 31515488

B1: Late cornified envelope protein 1B (Homo sapiens), Q5T7P3 (parent)
chain: MSCQQNQQQCQPPPKCIPKCPPKCLTPRCPPKCPPKCPPVSSCCSVSSGGCCGSSSGGSCGSSSGGCCSSGGGGCCLSHHRRRRSHCHRPQSSGCCSQPSGGSSCCGGGSGQHSGGCC
partner: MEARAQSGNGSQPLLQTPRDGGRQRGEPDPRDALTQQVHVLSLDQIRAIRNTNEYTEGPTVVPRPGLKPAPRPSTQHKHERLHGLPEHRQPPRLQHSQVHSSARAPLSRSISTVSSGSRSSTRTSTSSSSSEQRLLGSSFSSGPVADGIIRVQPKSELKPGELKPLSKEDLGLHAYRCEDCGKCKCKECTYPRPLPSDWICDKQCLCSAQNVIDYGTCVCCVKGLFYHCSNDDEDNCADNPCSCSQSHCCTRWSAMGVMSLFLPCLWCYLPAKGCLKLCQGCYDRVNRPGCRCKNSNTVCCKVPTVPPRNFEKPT
B2: Serine/threonine-protein kinase PAK 5 (Homo sapiens), Q9P286 (parent)
chain: MFGKKKKKIEISGPSNFEHRVHTGFDPQEQKFTGLPQQWHSLLADTANRPKPMVDPSCITPIQLAPMKTIVRGNKPCKETSINGLLEDFDNISVTRSNSLRKESPPTPDQGASSHGPGHAEENGFITFSQYSSESDTTADYTTEKYREKSLYGDDLDPYYRGSHAAKQNGHVMKMKHGEAYYSEVKPLKSDFARFSADYHSHLDSLSKPSEYSDLKWEYQRASSSSPLDYSFQFTPSRTAGTSGCSKESLAYSESEWGPSLDDYDRRPKSSYLNQTSPQPTMRQRSRSGSGLQEPMMPFGASAFKTHPQGHSYNSYTYPRLSEPTMCIPKVDYDRAQMVLSPPLSGSDTYPRGPAKLPQSQSKSGYSSSSHQYPSGYHKATLYHHPSLQSSSQYISTASYLSSLSLSSSTYPPPSWGSSSDQQPSRVSHEQFRAALQLVVSPGDPREYLANFIKIGEGSTGIVCIATEKHTGKQVAVKKMDLRKQQRRELLFNEVVIMRDYHHDNVVDMYSSYLVGDELWVVMEFLEGGALTDIVTHTRMNEEQIATVCLSVLRALSYLHNQGVIHRDIKSDSILLTSDGRIKLSDFGFCAQVSKEVPKRKSLVGTPYWMAPEVISRLPYGTEVDIWSLGIMVIEMIDGEPPYFNEPPLQAMRRIRDSLPPRVKDLHKVSSVLRGFLDLMLVREPSQRATAQELLGHPFLKLAGPPSCIVPLMRQYRHH
partner: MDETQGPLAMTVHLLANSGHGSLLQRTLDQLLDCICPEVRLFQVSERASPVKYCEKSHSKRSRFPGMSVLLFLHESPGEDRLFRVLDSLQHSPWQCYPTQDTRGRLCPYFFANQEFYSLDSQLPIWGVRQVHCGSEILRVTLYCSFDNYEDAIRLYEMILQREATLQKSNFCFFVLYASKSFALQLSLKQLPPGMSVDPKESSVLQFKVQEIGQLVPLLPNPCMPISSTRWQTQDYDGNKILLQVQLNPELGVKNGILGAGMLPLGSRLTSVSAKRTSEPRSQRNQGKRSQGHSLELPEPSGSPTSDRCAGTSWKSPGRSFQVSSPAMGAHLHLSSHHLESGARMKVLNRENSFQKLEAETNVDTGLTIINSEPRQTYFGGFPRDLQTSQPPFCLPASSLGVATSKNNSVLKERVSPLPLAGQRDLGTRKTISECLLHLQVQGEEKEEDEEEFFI
B3: Coiled-coil domain-containing protein 68 (Homo sapiens), Q9H2F9 (parent)
chain: MTTVTVTTEIPPRDKMEDNSALYESTSAHIIEETEYVKKIRTTLQKIRTQMFKDEIRHDSTNHKLDAKHCGNLQQGSDSEMDPSCCSLDLLMKKIKGKDLQLLEMNKENEVLKIKLQASREAGAAALRNVAQRLFENYQTQSEEVRKKQEDSKQLLQVNKLEKEQKLKQHVENLNQVAEKLEEKHSQITELENLVQRMEKEKRTLLERKLSLENKLLQLKSSATYGKSCQDLQREISILQEQISHLQFVIHSQHQNLRSVIQEMEGLKNNLKEQDKRIENLREKVNILEAQNKELKTQVALSSETPRTKVSKAVSTSELKTEGVSPYLMLIRLRK
B4: Protein FAM9B (Homo sapiens), Q8IZU0 (parent)
chain: MAAWGKKHAGKDPVRDECEERNRFTETREEDVTDEHGEREPFAETDEHTGANTKKPEDTAEDLTAKRKRMKMDKTCSKTKNKSKHALRKKQLKRQKRDYIHSLKLLNVLEEYITDEQKEEEEEEGEEEELIRIFQEQQKKWQQYRSVRRERLKEMKLLRDQFVKALEDFEDLCDRVFSDEDSELDN
partner: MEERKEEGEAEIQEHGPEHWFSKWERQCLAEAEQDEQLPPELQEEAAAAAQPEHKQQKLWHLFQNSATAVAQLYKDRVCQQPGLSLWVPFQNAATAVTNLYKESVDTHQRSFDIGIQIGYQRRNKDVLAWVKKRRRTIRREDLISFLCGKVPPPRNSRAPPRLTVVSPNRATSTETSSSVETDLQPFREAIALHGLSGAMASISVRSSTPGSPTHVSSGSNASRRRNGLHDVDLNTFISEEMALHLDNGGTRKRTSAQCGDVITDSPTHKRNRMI
B5: Cyclin-D1-binding protein 1 (Homo sapiens), O95273 (parent)
chain: MASATAPAAAVPTLASPLEQLRHLAEELRLLLPRVRVGEAQETTEEFNREMFWRRLNEAAVTVSREATTLTIVFSQLPLPSPQETQKFCEQVHAAIKAFIAVYYLLPKDQGITLRKLVRGATLDIVDGMAQLMEVLSVTPTQSPENNDLISYNSVWVACQQMPQIPRDNKAAALLMLTKNVDFVKDAHEEMEQAVEECDPYSGLLNDTEENNSDNHNHEDDVLGFPSNQDLYWSEDDQELIIPCLALVRASKACLKKIRMLVAENGKKDQVAQLDDIVDISDEISPSVDDLALSIYPPMCHLTVRINSAKLVSVLKKALEITKASHVTPQPEDSWIPLLINAIDHCMNRIKELTQSELEL
partner: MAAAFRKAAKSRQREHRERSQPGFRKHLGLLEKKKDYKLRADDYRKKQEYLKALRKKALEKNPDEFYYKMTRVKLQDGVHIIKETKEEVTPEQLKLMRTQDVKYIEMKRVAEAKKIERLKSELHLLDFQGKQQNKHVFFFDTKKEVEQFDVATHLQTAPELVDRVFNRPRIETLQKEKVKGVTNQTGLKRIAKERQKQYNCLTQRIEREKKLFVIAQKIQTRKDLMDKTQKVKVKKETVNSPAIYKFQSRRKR
B6: Angiomotin (Homo sapiens), Q4VCS5 (parent)
chain: MRNSEEQPSGGTTVLQRLLQEQLRYGNPSENRSLLAIHQQATGNGPPFPSGSGNPGPQSDVLSPQDHHQQLVAHAARQEPQGQEIQSENLIMEKQLSPRMQNNEELPTYEEAKVQSQYFRGQQHASVGAAFYVTGVTNQKMRTEGRPSVQRLNPGKMHQDEGLRDLKQGHVRSLSERLMQMSLATSGVKAHPPVTSAPLSPPQPNDLYKNPTSSSEFYKAQGPLPNQHSLKGMEHRGPPPEYPFKGMPPQSVVCKPQEPGHFYSEHRLNQPGRTEGQLMRYQHPPEYGAARPAQDISLPLSARNSQPHSPTSSLTSGGSLPLLQSPPSTRLSPARHPLVPNQGDHSAHLPRPQQHFLPNQAHQGDHYRLSQPGLSQQQQQQQQQHHHHHHHQQQQQQQPQQQPGEAYSAMPRAQPSSASYQPVPADPFAIVSRAQQMVEILSDENRNLRQELEGCYEKVARLQKVETEIQRVSEAYENLVKSSSKREALEKAMRNKLEGEIRRMHDFNRDLRERLETANKQLAEKEYEGSEDTRKTISQLFAKNKESQREKEKLEAELATARSTNEDQRRHIEIRDQALSNAQAKVVKLEEELKKKQVYVDKVEKMQQALVQLQAACEKREQLEHRLRTRLERELESLRIQQRQGNCQPTNVSEYNAAALMELLREKEERILALEADMTKWEQKYLEENVMRHFALDAAATVAAQRDTTVISHSPNTSYDTALEARIQKEEEEILMANKRCLDMEGRIKTLHAQIIEKDAMIKVLQQRSRKEPSKTEQLSCMRPAKSLMSISNAGSGLLSHSSTLTGSPIMEEKRDDKSWKGSLGILLGGDYRAEYVPSTPSPVPPSTPLLSAHSKTGSRDCSTQTERGTESNKTAAVAPISVPAPVAAAATAAAITATAATITTTMVAAAPVAVAAAAAPAAAAAPSPATAAATAAAVSPAAAGQIPAAASVASAAAVAPSAAAAAAVQVAPAAPAPVPAPALVPVPAPAAAQASAPAQTQAPTSAPAVAPTPAPTPTPAVAQAEVPASPATGPGPHRLSIPSLTCNPDKTDGPVFHSNTLERKTPIQILGQEPDAEMVEYLI
partner: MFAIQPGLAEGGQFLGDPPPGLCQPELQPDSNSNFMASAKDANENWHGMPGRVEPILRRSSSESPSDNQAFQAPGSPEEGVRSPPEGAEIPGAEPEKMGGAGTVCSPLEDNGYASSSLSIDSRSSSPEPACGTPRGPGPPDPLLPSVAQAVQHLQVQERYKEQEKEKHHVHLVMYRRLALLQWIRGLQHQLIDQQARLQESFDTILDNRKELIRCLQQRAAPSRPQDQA
B7: Cyclin-dependent kinase 2-interacting protein (Homo sapiens), Q9BW66 (parent)
chain: MEAKTLGTVTPRKPVLSVSARKIKDNAADWHNLILKWETLNDAGFTTANNIANLKISLLNKDKIELDSSSPASKENEEKVCLEYNEELEKLCEELQATLDGLTKIQVKMEKLSSTTKGICELENYHYGEESKRPPLFHTWPTTHFYEVSHKLLEMYRKELLLKRTVAKELAHTGDPDLTLSYLSMWLHQPYVESDSRLHLESMLLETGHRAL
partner: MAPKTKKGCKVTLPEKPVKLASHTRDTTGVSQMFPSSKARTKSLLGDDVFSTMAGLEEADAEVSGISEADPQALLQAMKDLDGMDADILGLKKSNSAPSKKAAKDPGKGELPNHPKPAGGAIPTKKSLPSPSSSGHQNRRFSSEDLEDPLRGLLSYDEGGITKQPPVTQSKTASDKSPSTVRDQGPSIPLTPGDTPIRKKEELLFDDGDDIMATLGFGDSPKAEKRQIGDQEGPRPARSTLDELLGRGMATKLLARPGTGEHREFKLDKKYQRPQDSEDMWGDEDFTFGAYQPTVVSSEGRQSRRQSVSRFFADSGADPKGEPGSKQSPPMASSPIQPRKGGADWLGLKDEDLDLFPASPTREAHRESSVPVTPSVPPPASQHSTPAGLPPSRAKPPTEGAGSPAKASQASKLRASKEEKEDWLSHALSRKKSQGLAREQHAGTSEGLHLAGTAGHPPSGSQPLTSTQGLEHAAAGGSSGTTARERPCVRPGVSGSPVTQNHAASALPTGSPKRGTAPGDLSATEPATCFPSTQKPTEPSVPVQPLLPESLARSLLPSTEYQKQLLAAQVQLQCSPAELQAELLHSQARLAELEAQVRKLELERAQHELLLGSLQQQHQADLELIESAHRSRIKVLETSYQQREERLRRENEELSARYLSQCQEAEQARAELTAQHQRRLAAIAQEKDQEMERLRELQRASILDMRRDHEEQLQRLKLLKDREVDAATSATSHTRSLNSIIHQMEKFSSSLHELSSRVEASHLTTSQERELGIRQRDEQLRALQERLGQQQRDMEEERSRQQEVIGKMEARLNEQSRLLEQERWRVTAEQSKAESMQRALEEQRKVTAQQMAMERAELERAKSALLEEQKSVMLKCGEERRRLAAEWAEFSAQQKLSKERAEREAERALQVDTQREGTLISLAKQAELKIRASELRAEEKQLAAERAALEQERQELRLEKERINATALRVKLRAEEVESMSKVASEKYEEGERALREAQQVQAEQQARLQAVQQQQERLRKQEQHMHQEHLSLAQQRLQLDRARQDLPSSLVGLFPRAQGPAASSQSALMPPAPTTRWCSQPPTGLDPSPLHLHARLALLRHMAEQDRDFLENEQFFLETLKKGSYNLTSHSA

Variants of: B1
Settings: with spy2_human SPRY2, O43597

effect of a mutation on the interaction	Variant
with no effect	G108E
with no effect	C51Y

Variants of: B2
Settings: with FAM124B

effect of a mutation on the interaction	Variant
with no effect	R335P

Variants of: B3
Settings: with tfp11_human TFIP11, Q9UBB9
Sequence of tfp11_human TFIP11, Q9UBB9 (Q9UBB9 whole entry): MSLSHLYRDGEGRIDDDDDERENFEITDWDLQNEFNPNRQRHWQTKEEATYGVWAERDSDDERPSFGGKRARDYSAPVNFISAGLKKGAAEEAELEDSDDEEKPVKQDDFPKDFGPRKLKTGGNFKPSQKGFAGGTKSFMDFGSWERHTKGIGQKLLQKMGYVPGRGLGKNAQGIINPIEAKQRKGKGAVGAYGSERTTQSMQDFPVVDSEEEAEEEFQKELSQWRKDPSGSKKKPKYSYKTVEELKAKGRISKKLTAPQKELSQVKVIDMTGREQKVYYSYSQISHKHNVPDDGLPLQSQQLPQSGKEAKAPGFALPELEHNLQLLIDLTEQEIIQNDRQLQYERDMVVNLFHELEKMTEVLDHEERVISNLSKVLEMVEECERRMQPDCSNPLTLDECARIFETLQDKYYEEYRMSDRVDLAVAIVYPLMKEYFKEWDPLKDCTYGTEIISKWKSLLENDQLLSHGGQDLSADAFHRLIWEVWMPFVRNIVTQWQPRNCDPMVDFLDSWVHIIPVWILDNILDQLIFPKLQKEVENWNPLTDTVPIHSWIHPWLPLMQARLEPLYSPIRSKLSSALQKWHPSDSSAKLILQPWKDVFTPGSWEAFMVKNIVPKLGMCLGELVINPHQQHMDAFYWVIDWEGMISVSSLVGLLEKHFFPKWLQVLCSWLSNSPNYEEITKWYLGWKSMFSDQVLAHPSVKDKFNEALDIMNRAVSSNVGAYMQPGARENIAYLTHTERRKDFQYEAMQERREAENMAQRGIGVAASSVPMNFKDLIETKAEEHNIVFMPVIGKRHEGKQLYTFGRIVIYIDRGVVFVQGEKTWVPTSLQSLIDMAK

effect of a mutation on the interaction	Variant
with no effect	D151G
with no effect	V249A
with no effect	L100V

Variants of: B4
Settings: with hapr1_human HAPSTR1, Q14CZ0

effect of a mutation on the interaction	Variant
with no effect	R23H

Variants of: B5
Settings: with utp11_human UTP11, Q9Y3A2

effect of a mutation on the interaction	Variant
disrupting interaction strength	I277T

Variants of: B6
Settings: with ca216_human C1orf216, Q8TAB5

effect of a mutation on the interaction	Variant
with no effect	T899A

Variants of: B7
Settings: with fbf1_human FBF1, Q8TES7

effect of a mutation on the interaction	Variant
with no effect	R164H
